{
  "source": "patent US20130224191A1",
  "about": "“NOTUM PROTEIN MODULATORS AND METHODS OF USE” (priority 2010, published 2013)",
  "molecules": {"B1": {"name": "SC2.D2.2 (antibody, V domains shown)", "VH": "DVQLVESGGGLVQPGGSRKISCAASGFTFSSYGMHWVRQAPEKGLEWVAYISSSTVTTYYADTVKGRFTISRDNANNTLFLQMTSLRSEDTAMYYCSRQNWDGGYFDVWGAGTTVTVSS", "VL": "DIVLTQSLASLAVSLGQRATISCRASKSVSSSGYSYMHWYQQKPGQPPKLLIYLASNLESGVPARFSGSGSGTDFTLNIHPVEEEDAATYYCQHSRALPLTFGAGTKLELKR", "notes": "also called murine SC2.D2.2"}},
  "key": {"[1]": {"system": "human Notum D141N, D141S", "experiment": "Neutralization of point mutated human Notum, 4-MUH assay", "format": "biochemical", "description": "In addition to the assays described in Examples 23 and 24, a fluorescent esterase substrate, 4-methylumbelliferyl heptanoate (Sigma), can be used to measure the activity of hydrolases using standard assay conditions (Richardson and Smith, 2007, PMID: 17620441; Jacks and Kircher, 1967, PMID: 5582971). Briefly, 4-MUH was dissolved in DMSO to a final concentration of 1.2 mM. This substrate was diluted 1:10 into assay buffer (0.1M Tris, pH 7.5, 50 mM NaCl, 0.05% Brij) and incubated with defined amounts of Notum enzyme or point-mutated Notum enzymes, and enzymatic release of the fluorescent molecule 4-methylumbelliferone monitored (355 nm excitation, 460 nm emission) using a Wallac Victor3 Multilabel Counter (Perkin Elmer).\nSimilarly, the macaque residue at this position was point mutated to the human residue (N141D). […] However, these point mutants differed in their ability to be neutralized by SC2.D2.2 (FIG. 26)."}, "[2]": {"biological_target": "T1, chimeric human/mouse Notum (Homo sapiens, UniProt Q6P988, A205S/A256S/E196D/E289D/E487K/H276R/H373G/H396Y/K251E/L360Q/L418F/L429M/L483M/M474V/N299S/P379Q/P480Q/Q248L/Q311K/R218K/R307Q/R361W/S193P/T277S/T284N/V280I/V301M/V434F/V452I/Y171H)", "T1 construct": "human mature Notum protein (residues 19-144) fused to the mouse Notum (mouse residues 150-484); His tag; made in house", "T1 sequence (Q6P988 with tags, fused parts or gaps Y171H/S193P/E196D/A205S/R218K/Q248L/K251E/A256S/H276R/T277S/V280I/T284N/E289D/N299S/V301M/R307Q/Q311K/L360Q/R361W/H373G/P379Q/H396Y/L418F/L429M/V434F/V452I/M474V/P480Q/L483M/E487K)": "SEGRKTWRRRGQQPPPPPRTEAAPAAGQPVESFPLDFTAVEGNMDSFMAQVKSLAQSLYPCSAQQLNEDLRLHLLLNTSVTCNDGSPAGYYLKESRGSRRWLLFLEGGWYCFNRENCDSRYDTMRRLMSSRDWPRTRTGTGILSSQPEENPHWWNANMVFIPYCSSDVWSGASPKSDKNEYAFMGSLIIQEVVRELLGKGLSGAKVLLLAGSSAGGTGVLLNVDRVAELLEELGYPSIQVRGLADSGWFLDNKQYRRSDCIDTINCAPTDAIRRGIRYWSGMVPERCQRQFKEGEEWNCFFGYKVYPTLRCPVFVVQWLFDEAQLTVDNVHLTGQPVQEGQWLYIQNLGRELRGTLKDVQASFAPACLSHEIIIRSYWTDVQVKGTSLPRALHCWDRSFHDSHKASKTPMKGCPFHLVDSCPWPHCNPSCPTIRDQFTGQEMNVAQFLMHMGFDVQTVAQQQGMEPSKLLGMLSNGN", "experiment": "Epitope mapping ELISA, chimeric Notum", "format": "binding", "text": "To better understand the structural basis for the interaction of SC2.D2.2 with human Notum, a chimeric Notum protein was fabricated. This approach takes advantage of the fact that the orthologs are structurally related. To that end a chimeric Notum molecule composed of the N terminal of the human mature Notum protein (residues 19-144) fused to the mouse Notum (mouse residues 150-484) (genes both consistent with Example 7) was generated and expressed in a similar manner to that set forth in previous Examples. The BamHI restriction cleavage site in human Notum gene was used for construction of in-frame fusion Notum chimeric protein. An expression vector was then constructed containing the His tagged chimeric Notum sequence.\nBinding of SC2.D2.2 and other mouse mAbs to purified Notum molecules generated from transient transfection of Human and Mouse Notum cDNAs were tested using ELISA assay with human Notum, mouse Notum and chimeric human/mouse Notum coated directly on ELISA plate. Binding of anti-Notum mAbs was detected with HRP-conjugated goat anti mouse antibody and followed by colorimetric horseradish peroxidase substrate (TMB substrate Thermo Scientific). The absorbance of each well of the ELISA plates was measured at 450 nm on a microplate autoreader."}, "[3]": {"biological_target": "T2, Notum being secreted from the 293-Notum cells (Homo sapiens, UniProt Q6P988)", "T2 construct": "expressed in transfected cells; host or cells: 293T (293.Notum)", "T2 sequence (Q6P988 20-496)": "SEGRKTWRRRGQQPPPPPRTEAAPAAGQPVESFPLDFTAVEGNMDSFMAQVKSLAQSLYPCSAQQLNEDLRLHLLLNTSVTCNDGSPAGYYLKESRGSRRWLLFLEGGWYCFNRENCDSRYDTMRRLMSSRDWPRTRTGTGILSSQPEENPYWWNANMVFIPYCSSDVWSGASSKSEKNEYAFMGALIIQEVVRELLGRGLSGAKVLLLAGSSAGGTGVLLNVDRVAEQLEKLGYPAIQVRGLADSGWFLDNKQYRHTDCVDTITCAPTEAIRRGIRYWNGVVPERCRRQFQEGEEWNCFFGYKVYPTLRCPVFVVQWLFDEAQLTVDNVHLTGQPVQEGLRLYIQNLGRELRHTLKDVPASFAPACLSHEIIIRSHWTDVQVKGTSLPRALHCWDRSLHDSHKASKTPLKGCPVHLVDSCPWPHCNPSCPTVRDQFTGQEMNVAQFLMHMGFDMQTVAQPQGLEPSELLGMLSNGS", "experiment": "Co-culture Wnt3A assay, effector cells with 293.TCF reporter cells", "format": "cell-based", "conditions": "antibody 10 μg/mL", "description": "In order to more closely model the behavior of Notum producing cells in vivo, co-culture experiments were performed in which effector cells, either parental 293T cells (293.null) or 293T cells expressing soluble Notum (i.e., 293.Notum cells), were mixed in varying ratios with reporter 293.TCF cells. Notum activity or inhibition in the presence of antibodies was then determined from these cell mixtures after treatment with Wnt3A CM. Briefly, three different ratios of effector to reporter cells were tested: 2:1, 1:[…], corresponding to 5×10^4: 2.5×10^4, 2.5×10^4: 2.5×10^4 cells, or 2.5×10^41.0×10^4 cells per well of a 96-well plate by mixing the cells in 50 μL serum free medium per well prior to plating.\nFor the antibody antagonism experiments, the mixture of cells was plated into wells containing 25 μL of DMEM+0.2% FBS and antibody at a final concentration of 10 μg/mL. Twenty-three hours after plating, 25 μL of Wnt3A or control L-cell CM were added to each well. Eighteen hours after addition of CM, 100 μL of One-Glo solution (ProMega Corp.) was added to each well. The contents of each well were then mixed thoroughly to lyse the cells, 100 μL of lysate transferred to black 96-well plates, and the luminescence read after 5 minutes."}},
  "data": [
    {"molecule": "B1", "values": [
      {"measurement": "neutralization of mutant Notum protein", "setting": "[1]", "value": "eliminated the ability of SC2.D2.2 to neutralize the resultant protein"},
      {"measurement": "binding to Notum chimeric protein", "setting": "[2]", "value": "confirmed the binding"},
      {"measurement": "location of epitope", "setting": "[2]", "value": "within the first 135 residues of the N terminus of the human Notum protein"},
      {"measurement": "Wnt3A-induced luciferase", "setting": "[3]; co-cultures of 293.Notum and 293.TCF cells", "value": "increases the amount of Wnt3A-induced luciferase"},
      {"measurement": "induction of luciferase activity by Wnt3A CM", "setting": "[3]; co-cultures of 293.null and 293.TCF cells", "value": "little effect"}
    ]}
  ]
}
